For three substances, EC50 results are on record in publication PMC11036266.

Aflibercept with sialylated N-glycans (AFLI^Sia), isolated from total soluble protein (Fc fusion), sequence (chain): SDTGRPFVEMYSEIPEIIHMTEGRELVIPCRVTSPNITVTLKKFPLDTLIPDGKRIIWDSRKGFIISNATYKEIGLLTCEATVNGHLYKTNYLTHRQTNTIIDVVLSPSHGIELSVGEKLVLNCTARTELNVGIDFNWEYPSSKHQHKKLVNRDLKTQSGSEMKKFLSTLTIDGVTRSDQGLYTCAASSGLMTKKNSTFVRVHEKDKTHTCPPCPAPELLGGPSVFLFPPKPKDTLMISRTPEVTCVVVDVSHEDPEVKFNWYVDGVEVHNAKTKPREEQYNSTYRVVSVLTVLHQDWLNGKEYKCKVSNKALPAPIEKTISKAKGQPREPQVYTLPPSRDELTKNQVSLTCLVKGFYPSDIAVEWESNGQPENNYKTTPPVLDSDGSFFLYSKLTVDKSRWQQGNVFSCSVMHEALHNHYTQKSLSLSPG
Aflibercept with GlcNAc-terminated N-glycans (AFLI^GnGn), isolated from total soluble protein (Fc fusion), sequence (chain): as above
Aflibercept with sialylated N-glycans (AFLI^Sia), isolated from intercellular fluid (Fc fusion), sequence (chain): as above

This experiment deals with Human VEGF165 (human) (UniProt P15692). Kind of experiment: ELISA; human VEGF165 coated on MaxiSorp plates (0.4 µg/mL in PBS, pH 7.4, overnight); aflibercept samples added as 2-fold serial dilutions (1000.0-1.0 ng/mL) in 4% milk powder in PBS-T, RT, 1.5 h; detected with anti-human IgG γ chain-HRPO; EC50 by four-parametric log model. (In general: ELISA stands for enzyme-linked immunosorbent assay.)
Human VEGF165 (human), sequence (P15692 other isoform, or with tags, fused parts or gaps): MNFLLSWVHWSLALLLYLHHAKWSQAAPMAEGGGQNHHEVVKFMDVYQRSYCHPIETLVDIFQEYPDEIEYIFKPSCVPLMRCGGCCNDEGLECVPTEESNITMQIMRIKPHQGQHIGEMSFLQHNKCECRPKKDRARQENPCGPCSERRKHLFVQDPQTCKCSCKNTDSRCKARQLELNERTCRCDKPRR
Consider “Aflibercept with sialylated N-glycans (AFLI^Sia), isolated from total soluble protein (Fc fusion)”, for which the EC50 turned out to be 0.31 nM.
Under “Aflibercept with GlcNAc-terminated N-glycans (AFLI^GnGn), isolated from total soluble protein (Fc fusion)” stands 0.242 nM.
As for “Aflibercept with sialylated N-glycans (AFLI^Sia), isolated from intercellular fluid (Fc fusion)”, the 50% effective concentration (EC50) worked out at 0.358 nM.

By EC50 is commonly meant the concentration at which the effect is half-maximal. Read a low EC50 as a more potent agent.
